± gives the standard deviation of the averaged measurements.
B1: library; a variant is named by its letters at N, in order (parent)
chain: GCUGUCACCGAGAAACUGUGAAGUAUAUCUUAAACCUGGGCACUUAAAAGAUAUAUGGAGUUAGUAGUGCAACCUGCUCGGUCUGAUGAGUCCNNNNNNGGACGAAACAGC

Tests used:
cyclic di-GMP [1] = variants of: B1; assay: FACS-Seq fitted mean relative fluorescence mCherry/BFP without ligand (log10 relative fluorescence); HEK293T; ligand: cyclic di-GMP (c-di-GMP-II aptamer); higher = higher reporter protein expression; details: ligand present: no
Method in brief: (§1)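 Sorting into 6 bins by mCherry/BFP followed 48 h of incubation with or without ligand. The cells were enriched HEK293T libraries lentivirally bearing an mCherry reporter with the ribozyme switch and an EF1α-BFP marker, and bin genomic DNA was PCR-amplified, barcoded and sequenced on MiSeq. Fluorescence is the fitted normal mean of the bin counts. Means were fitted on log10(mCherry/BFP), scaled to five spiked-in control ribozymes.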

cyclic di-GMP [2] = variants of: B1; assay: normalized RNA/DNA level without ligand (relative to sTRSVctl = 100) (log10 (% of sTRSVctl)); HEK293T; ligand: cyclic di-GMP (c-di-GMP-II aptamer); higher = less ribozyme self-cleavage, higher mRNA level; details: reporter: mCherry (pCS4076), ligand present: no
Protocol: (§2)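 Hammerhead (sTRSV) ribozyme switch libraries with a ligand aptamer grafted on stem I and a randomized N4-6 loop II, cloned into the 3' UTR of mCherry and transiently transfected into HEK293T cells; RNA-Seq 72 h post transfection with ligand added 1 h before transfection; RNA read count / plasmid DNA read count normalized to the non-cleaving sTRSVctl (x100), log10; sequences with >100 DNA reads. FACS-Seq: lentiviral library sorted into 6 bins after 48 h ligand, log-normal fit mean of mCherry/BFP scaled to controls. Printed sequences are partial switch sequences.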

cyclic di-GMP [3] = variants of: B1; assay: FACS-Seq fitted mean relative fluorescence mCherry/BFP with ligand (log10 relative fluorescence); HEK293T; ligand: cyclic di-GMP (c-di-GMP-II aptamer); ligand concentration (+) FACS-Seq: 1 mM; higher = higher reporter protein expression; details: ligand present: yes
Method in brief: as §1

cyclic di-GMP [4] = variants of: B1; assay: normalized RNA/DNA level with ligand (relative to sTRSVctl = 100) (log10 (% of sTRSVctl)); HEK293T; ligand: cyclic di-GMP (c-di-GMP-II aptamer); ligand concentration (+) RNA-Seq: 1 mM; higher = less ribozyme self-cleavage, higher mRNA level; details: reporter: mCherry (pCS4076), ligand present: yes
Protocol: as §2

Variant | FACS-Seq fitted mean (log10) (cyclic di-GMP [1]) | normalized RNA/DNA level without ligand (log10) (cyclic di-GMP [2]) | FACS-Seq fitted mean (log10) (cyclic di-GMP [3]) | normalized RNA/DNA level with ligand (log10) (cyclic di-GMP [4])
GCUGUCACCGAGAAACUGUGAAGUAUAUCUUAAACCUGGGCACUUAAAAGAUAUAUGGAGUUAGUAGUGCAACCUGCUCGGUCUGAUGAGUCCCCGGAAGGACGAAACAGC | -0.512 ± 0.023 | 1.28 ± 0.09 | -0.209 ± 0.03 | 1.47 ± 0.12
GCUGUCACCGAGAAACUGUGAAGUAUAUCUUAAACCUGGGCACUUAAAAGAUAUAUGGAGUUAGUAGUGCAACCUGCUCGGUCUGAUGAGUCCCCGGACGGACGAAACAGC | -0.253 ± 0.11 | 1.62 ± 0.034 | -0.0326 ± 0.0056 | 1.75 ± 0.086
GCUGUCACCGAGAAACUGUGAAGUAUAUCUUAAACCUGGGCACUUAAAAGAUAUAUGGAGUUAGUAGUGCAACCUGCUCGGUCUGAUGAGUCCUCGGAAGGACGAAACAGC | -0.484 ± 0.069 | 1.34 ± 0.14 | -0.286 ± 0.048 | 1.49 ± 0.11
GCUGUCACCGAGAAACUGUGAAGUAUAUCUUAAACCUGGGCACUUAAAAGAUAUAUGGAGUUAGUAGUGCAACCUGCUCGGUCUGAUGAGUCCACGGAAGGACGAAACAGC | -0.62 ± 0.042 | 1.31 ± 0.097 | -0.325 ± 0.031 | 1.47 ± 0.13
GCUGUCACCGAGAAACUGUGAAGUAUAUCUUAAACCUGGGCACUUAAAAGAUAUAUGGAGUUAGUAGUGCAACCUGCUCGGUCUGAUGAGUCCACGCUCGGACGAAACAGC | -0.914 ± 0.014 | 1.67 ± 0.02 | -0.852 ± 0.057 | 1.82 ± 0.16
GCUGUCACCGAGAAACUGUGAAGUAUAUCUUAAACCUGGGCACUUAAAAGAUAUAUGGAGUUAGUAGUGCAACCUGCUCGGUCUGAUGAGUCCGCGGAAGGACGAAACAGC | -0.527 ± 0.013 | 1.33 ± 0.21 | -0.19 ± 0.061 | 1.54 ± 0.1
GCUGUCACCGAGAAACUGUGAAGUAUAUCUUAAACCUGGGCACUUAAAAGAUAUAUGGAGUUAGUAGUGCAACCUGCUCGGUCUGAUGAGUCCCCGCUUGGACGAAACAGC | -0.424 ± 0.011 | 1.557 ± 0.013 | -0.124 ± 0.0085 | 1.79 ± 0.076

Source: the supplement of paper PMC6757056
